Assay results taken from US20200338219A1 (ACTINIUM PHARMACEUTICALS, published 2020).

B1: murine anti-CD45 monoclonal antibody BC8 (antibody, mouse IgG1, kappa, V domains shown)
VH: EVKLLESGGGLVQPGGSLKLSCAASGFDFSRYWMSWVRQAPGKGLEWIGEINPTSSTINFTPSLKDKVFISRDNAKNTLYLQMSKVRSEDTALYYCARGNYYRYGDAMDYWGQGTSVTVSS
VL: DIALTQSPASLAVSLGQRATISCRASKSVSTSGYSYLHWYQQKPGQPPKLLIYLASNLESGVPARFSGSGSGTDFTLNIHPVEEEDAATYYCQHSRELPFTFGSGTKLEIKR
modifications: position 141 is found to be a mixture of ASP and ASN in the purified protein (deamidation of ASN-141)
notes: Purified from hybridoma ATCC HB-10507; also called BC8 MAb; anti-CD45 immunoglobulin BC8
B2: BC8 Fab (Fab, V domains shown)
VH: B1 VH
VL: B1 VL
notes: It was detected with an anti-mouse F(ab')2 secondary antibody; also called Test Fab

How the values were obtained:
[1] = molecular target: T1, human CD45 protein, wild-type (WT) construct expressed on HEK-293T cells (human, UniProt P08575 26-1306); test: high-throughput flow cytometry on HEK-293T cells expressing WT CD45 against vector alone, 5.00 µg/ml
T1 construct: also called target protein (WT); PTPRC
T1 sequence: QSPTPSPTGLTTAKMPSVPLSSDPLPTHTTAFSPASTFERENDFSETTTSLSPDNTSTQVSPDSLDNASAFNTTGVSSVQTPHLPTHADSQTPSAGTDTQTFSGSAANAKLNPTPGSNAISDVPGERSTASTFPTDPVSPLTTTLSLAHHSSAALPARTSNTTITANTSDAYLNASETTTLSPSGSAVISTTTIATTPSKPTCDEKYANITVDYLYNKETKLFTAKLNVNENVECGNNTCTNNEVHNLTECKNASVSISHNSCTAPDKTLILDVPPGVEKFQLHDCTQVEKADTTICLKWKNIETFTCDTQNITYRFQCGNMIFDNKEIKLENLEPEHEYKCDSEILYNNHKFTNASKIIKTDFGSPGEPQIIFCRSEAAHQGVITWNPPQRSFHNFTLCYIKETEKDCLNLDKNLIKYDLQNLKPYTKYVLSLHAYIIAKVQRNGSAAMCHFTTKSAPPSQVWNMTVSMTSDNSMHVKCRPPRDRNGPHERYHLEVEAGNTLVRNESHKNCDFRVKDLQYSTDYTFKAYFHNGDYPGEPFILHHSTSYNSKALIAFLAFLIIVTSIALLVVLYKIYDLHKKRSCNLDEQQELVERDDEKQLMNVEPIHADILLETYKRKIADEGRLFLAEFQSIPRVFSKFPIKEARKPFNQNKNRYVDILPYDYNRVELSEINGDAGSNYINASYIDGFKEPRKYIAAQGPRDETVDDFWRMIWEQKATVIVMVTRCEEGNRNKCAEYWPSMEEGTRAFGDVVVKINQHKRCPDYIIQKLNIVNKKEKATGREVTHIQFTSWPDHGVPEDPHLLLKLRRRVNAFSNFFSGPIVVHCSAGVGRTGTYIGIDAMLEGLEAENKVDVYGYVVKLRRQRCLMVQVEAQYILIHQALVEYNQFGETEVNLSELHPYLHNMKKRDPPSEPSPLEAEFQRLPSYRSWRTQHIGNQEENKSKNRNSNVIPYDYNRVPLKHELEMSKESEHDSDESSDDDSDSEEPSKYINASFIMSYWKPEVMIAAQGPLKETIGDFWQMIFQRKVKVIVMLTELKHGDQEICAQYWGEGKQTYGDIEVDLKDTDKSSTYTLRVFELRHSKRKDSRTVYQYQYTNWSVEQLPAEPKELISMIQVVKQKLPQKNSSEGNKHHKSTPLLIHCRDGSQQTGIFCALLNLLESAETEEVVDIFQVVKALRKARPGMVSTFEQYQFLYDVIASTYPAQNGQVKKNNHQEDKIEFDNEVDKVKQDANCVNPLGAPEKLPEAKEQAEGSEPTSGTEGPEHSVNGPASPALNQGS
Experimental: (§1) Cells were transfected with a wild-type (WT) construct of the target protein or with vector alone in 384-well format, followed by detection of cellular expression via high-throughput flow cytometry. Serial dilutions of each MAb were tested for immunoreactivity against cells expressing target protein (WT) or vector alone.

[2] = molecular target: T1, human CD45 protein, wild-type (WT) …; test: high-throughput flow cytometry on HEK-293T cells expressing WT CD45 against vector alone, 5.0 ug/ml
Experimental: as §1

| Binder | Signal:Background [1] | Signal:Background [2] |
| --- | --- | --- |
| B1 | 9 signal:background ratio |  |
| B2 |  | 6 signal:background ratio |
